The text below walks through data of patent publication EP4722241A1 (Jiksak Bioengineering, Inc., dated 2024).

For assay [1], the target named is T1, pan-hSYT2 (antigenic peptide for panning, Human SYT2 position 1-62) (human, lysine residue bound to biotin (position marked only in a picture of the sequence)).
T1 construct: Synthetic biotinylated peptide, immobilised on streptavidin biosensors in the Octet measurements; also called N-terminal domain of human Synaptotagmin 2
T1 peptide: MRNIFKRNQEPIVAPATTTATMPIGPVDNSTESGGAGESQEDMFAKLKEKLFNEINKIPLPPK
Description: BLI (Octet RED96e), biotinylated pan-hSYT2 on streptavidin biosensor, antigen loaded at 0.05 ug/mL. In general terms: Biolayer interferometry detects binding as a change in optical thickness at a sensor tip.

The target in assay [2] is T1, pan-hSYT2 (antigenic peptide for …). Description: BLI (Octet RED96e), same manner as Example 2, antigen loaded at 0.2 ug/mL.

The Kd is a measure of binding affinity in units of concentration. A low value points to tighter binding. As usually defined, the koff is the rate constant with which the complex falls apart. A low value points to a long-lived complex. Usually kon stands for a measure of how fast the partners come together. Read a high kon as fast association.

B1: first monoclonal antibody according to the present invention (antibody, human IgG1, V domains shown)
VH: EVQLQESGAELVRPGASVKLSCKASGYTFTDYEMHWVKQTPVHGLEWIGAIDPETGGTAYNQKFKGKATLTADKSSSTAYMELRSLTSEDSAVYYCTRGNDGYNEDYWGQGTTLTVSS
VL: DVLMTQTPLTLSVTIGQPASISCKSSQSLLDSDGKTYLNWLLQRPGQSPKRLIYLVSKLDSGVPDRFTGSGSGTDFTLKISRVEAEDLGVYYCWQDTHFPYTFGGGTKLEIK
notes: Mouse VH and VL from a phage display scFv clone; also called first antibody; first anti-SYT2 antibody
B1: in assay [1], binding was characterised by a dissociation constant (Kd) of 0.0267 nM, the koff was 7.01e-06 s⁻¹ and the kon was 263000 M⁻¹ s⁻¹.

B2: second monoclonal antibody according to the present invention (antibody, human IgG1, V domains shown)
VH: QVQLQQSGAELVRPGASVKLSCKASGYTFTDYEMHWVKQTPVHGLEWIGAIDPETGGTAYNQKFKGKATLTADKSSSTAYMELRSLTSEDSAVYYCTRGNDGYNEDYWGQGTSLTVSS
VL: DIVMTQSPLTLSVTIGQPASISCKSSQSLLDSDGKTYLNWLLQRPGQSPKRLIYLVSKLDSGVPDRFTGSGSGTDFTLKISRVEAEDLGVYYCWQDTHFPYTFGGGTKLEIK
notes: also called second antibody; second anti-SYT2 antibody
Take B2: in assay [2], the koff worked out at 1.35e-05 s⁻¹.
